According to patent US20080153130:

T1: UBI::KALA hybrid protein substrate (ubiquitin fused to the 18-amino-acid KALA peptide)
T1 chain: DPGDKDGDGYISAAEAMA

B1: UBP1ΔC2 protease (UBP1 truncated by 98 N-terminal amino acids, mutation C Gln754Leu, six histidine residues at its C-end) (protein)
chain: GGFIAGLVNDGNTCFMNSVLQSLASSRELMEFLDNNVIRTYEEIEQNEHNEEGNGQESAQDEATHKKNTRKGGKVYGKHKKKLNRKSSSKEDEEKSQEPDITFSVALRDLLSALNAKYYRDKPYFKTNSLLKAMSKSPRKNILLGYDQEDAQEFFQNILAELESNVKSLNTEKLDTTPVAKSELPDDALVGQLNLGEVGTVYIPTEQIDPNSILHDKSIQNFTPFKLMTPLDGITAERIGCLQCGENGGIRYSVFSGLSLNLPNENIGSTLKLSQLLSDWSKPEIIEGVECNRCALTAAHSHLFGQLKEFEKKPEGSIPEKPINAVKDRVHQIEEVLAKPVIDDEDYKKLHTANMVRKCSKSKQILISRPPPLLSIHINRSVFDPRTYMIRKNNSKVLFKSRLNLAPWCCDINEINLDARLPMSKKEKAAQQDSSEDENIGGEYYTKLHERFEQEFEDSEEEKEYDDAEGNYASHYNHTKDISNYDPLNGEVDGVTSDDEDEYIEETDALGNTIKKRIIEHSDVENENVKDNEELQEIDNVSLDEPKINVEDQLETSSDEEDVIPAPPINYARSFSTVPATPLTYSLRSVIVHYGTHNYGHYIAFRKYRGCWWRISDETVYVVDEAEVLSTPGVFMLFYEYDFDEETGKMKDDLEAILSNNEEDDEKEQEQKGVQEPKESQEQGEGEEQEEGQEQMKFERTEDHRDISGKDVNGSHHHHHH
B2: UBP1ΔC protease (UBP1 deletion mutant with mutation C at position 754) (protein)
chain: GGDHLNYIVESVSEMTTNFRNNNSLSRWLPRSKFTHLDEEILKRGGFIAGLVNDGNTCFMNSVLQSLASSRELMEFLDNNVIRTYEEIEQNEHNEEGNGQESAQDEATHKKNTRKGGKVYGKHKKKLNRKSSSKEDEEKSQEPDITFSVALRDLLSALNAKYYRDKPYFKTNSLLKAMSKSPRKNILLGYDQEDAQEFFQNILAELESNVKSLNTEKLDTTPVAKSELPDDALVGQLNLGEVGTVYIPTEQIDPNSILHDKSIQNFTPFKLMTPLDGITAERIGCLQCGENGGIRYSVFSGLSLNLPNENIGSTLKLSQLLSDWSKPEIIEGVECNRCALTAAHSHLFGQLKEFEKKPEGSIPEKPINAVKDRVHQIEEVLAKPVIDDEDYKKLHTANMVRKCSKSKQILISRPPPLLSIHINRSVFDPRTYMIRKNNSKVLFKSRLNLAPWCCDINEINLDARLPMSKKEKAAQQDSSEDENIGGEYYTKLHERFEQEFEDSEEEKEYDDAEGNYASHYNHTKDISNYDPLNGEVDGVTSDDEDEYIEETDALGNTIKKRIIEHSDVENENVKDNEELQEIDNVSLDEPKINVEDQLETSSDEEDVIPAPPINYARSFSTVPATPLTYSLRSVIVHYGTHNYGHYIAFRKYRGCWWRISDETVYVVDEAEVLSTPGVFMLFYEYDFDEETGKMKDDLEAILSNNEEDDEKEQEQKGVQEPKESQEQGEGEEQEEGQEQMKFERTEDHRDISGKDVNGSHHHHHH

Experiments:
[1] = molecular target: His6UBI::ElisaC hybrid protein (six histidines, ubiquitin and the C-terminal fragment of UBP1ΔC protease)
[2] = molecular target: T1, UBI::KALA hybrid protein substrate …

| Protein | preparative digestion of the hybrid protein, then Ni-NTA chromatography and SDS-PAGE [1] | proteolytic activity (cleavage of ubiquitin from the hybrid substrate, SDS-PAGE image analysis), fold over UBP1ΔC [1] | proteolytic activity (cleavage of ubiquitin from the hybrid substrate, SDS-PAGE image analysis), fold over UBP1ΔC [2] | proteolytic activity (cleavage of ubiquitin from the hybrid substrate, SDS-PAGE image analysis), reference enzyme [1] | proteolytic activity (cleavage of ubiquitin from the hybrid substrate, SDS-PAGE image analysis), reference enzyme [2] |
| --- | --- | --- | --- | --- | --- |
| B1 | High purity ElisaC protein was obtained, cleaved from 6HisUBI | the enzyme UBP1ΔC2 is 5-6 times more active than mutant UBP1 AC | the enzyme UBP1ΔC2 is 5-6 times more active than mutant UBP1 AC |  |  |
| B2 |  |  |  | the enzyme UBP1ΔC2 is 5-6 times more active than mutant UBP1 AC | the enzyme UBP1ΔC2 is 5-6 times more active than mutant UBP1 AC |
